From paper PMC11779899 (Nature Communications, 2025)

Assays:
[1] = target: T1, WT-IrtABΔSID heterodimer in LMNG (Mycolicibacterium thermoresistibile …, point mutant); assay: cryo-EM structure
T1 chain 1: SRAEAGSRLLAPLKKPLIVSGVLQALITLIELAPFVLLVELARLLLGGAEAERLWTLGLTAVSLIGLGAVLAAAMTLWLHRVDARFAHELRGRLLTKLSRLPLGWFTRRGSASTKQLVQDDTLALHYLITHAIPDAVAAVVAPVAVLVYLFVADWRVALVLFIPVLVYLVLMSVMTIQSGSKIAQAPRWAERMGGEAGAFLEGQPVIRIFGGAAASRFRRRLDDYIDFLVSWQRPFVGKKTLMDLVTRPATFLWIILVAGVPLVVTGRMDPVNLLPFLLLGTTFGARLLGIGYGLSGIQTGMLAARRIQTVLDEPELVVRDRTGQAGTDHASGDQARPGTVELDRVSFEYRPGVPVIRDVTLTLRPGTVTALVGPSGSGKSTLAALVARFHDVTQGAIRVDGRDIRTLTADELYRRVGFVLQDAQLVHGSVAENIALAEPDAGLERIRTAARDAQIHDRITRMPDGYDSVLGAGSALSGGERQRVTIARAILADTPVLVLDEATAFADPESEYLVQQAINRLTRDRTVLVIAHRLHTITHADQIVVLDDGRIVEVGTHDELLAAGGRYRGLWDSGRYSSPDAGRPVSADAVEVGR
T1 chain 2: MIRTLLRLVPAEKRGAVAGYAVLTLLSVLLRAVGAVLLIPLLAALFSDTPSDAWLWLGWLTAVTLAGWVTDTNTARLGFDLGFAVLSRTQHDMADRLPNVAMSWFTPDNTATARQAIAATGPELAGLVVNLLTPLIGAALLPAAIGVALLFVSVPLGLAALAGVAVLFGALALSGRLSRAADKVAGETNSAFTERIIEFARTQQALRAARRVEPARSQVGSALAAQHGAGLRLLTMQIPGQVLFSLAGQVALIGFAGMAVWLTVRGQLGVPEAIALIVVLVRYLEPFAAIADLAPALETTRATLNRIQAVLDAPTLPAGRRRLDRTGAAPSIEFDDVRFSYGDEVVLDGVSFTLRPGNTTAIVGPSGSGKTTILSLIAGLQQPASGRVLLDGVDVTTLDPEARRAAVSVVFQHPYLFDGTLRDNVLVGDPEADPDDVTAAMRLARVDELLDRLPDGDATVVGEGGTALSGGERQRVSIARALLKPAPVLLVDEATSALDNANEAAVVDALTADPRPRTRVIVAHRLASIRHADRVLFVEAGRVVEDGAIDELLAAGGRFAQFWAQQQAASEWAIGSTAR

[2] = target: Full-length WT-IrtAB heterodimer reconstituted in nanodiscs (Mycolicibacterium thermoresistibile …, UniProt G7CBF5;G7CBF6); assay: cryo-EM structure

B1: IrtAB-specific sybody SybNL5 (VHH)
VHH: QVQLVESGGGLVQAGGSLRLSCAASGFPVSSSTMTWYRQAPGKEREWVAAINSYGYYTVYADSVKGRFTISRDNAKNTVYLQMNSLKPEDTAVYYCNVKDTGQMRESYDYWGQGTQVTVSA
**Q.** Which results are given for B1?
**A.** binding result [1]: binds; binding result [2]: binds
